Source: paper PMC12695944, “Geminin inhibits DNA replication licensing by sterically blocking CDT1-MCM2 interactions” (Nature Communications, 2025)
Positions count from the first letter of the chain named.

Key:
[1] = target: T1, CDT1^ΔN (N-terminally truncated CDT1^158-546) (human, UniProt Q9H211 158-546); experiment: SPR
T1 chain: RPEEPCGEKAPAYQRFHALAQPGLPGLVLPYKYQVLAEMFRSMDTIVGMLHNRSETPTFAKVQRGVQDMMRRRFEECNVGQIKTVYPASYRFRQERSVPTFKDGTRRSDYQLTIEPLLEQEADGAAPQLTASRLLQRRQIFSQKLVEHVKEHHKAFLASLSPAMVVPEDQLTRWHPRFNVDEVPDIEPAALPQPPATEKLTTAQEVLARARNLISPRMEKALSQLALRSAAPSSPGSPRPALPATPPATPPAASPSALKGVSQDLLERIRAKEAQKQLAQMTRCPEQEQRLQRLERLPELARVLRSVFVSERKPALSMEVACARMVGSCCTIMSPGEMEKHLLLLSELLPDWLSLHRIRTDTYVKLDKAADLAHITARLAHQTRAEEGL

[2] = target: T2, CDT1 middle helical domain (CDT1^MHD, residues 158–396) (human, UniProt Q9H211 158-396); experiment: mass photometry; room temperature; proteins incubated at CDT1:geminin monomer ratios 0:1, 1:0, 1:2, 1:3, 2:4, 1:4 (1 part = 150 nM) in pre-RC buffer minus Triton X-100, diluted 1:10 in PBS on the instrument; MHD, CHD at 1:2; details: both partners purified
T2 construct: CDT1, human, UniProt Q9H211, residues 158-396; also called CDT1^158-396; source: E. coli, purified as CDT1^ΔN with the POROS HS step omitted
T2 sequence (looked up): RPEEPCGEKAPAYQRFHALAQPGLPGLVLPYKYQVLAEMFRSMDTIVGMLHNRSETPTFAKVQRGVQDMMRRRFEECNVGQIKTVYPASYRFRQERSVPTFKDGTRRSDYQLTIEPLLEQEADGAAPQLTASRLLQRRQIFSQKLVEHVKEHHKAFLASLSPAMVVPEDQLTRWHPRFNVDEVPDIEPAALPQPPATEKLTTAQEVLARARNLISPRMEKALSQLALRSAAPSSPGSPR

[3] = target: T3, CDT1^4A (CDT1^ΔN with residues 327–330 mutated to alanines) (human, UniProt Q9H211 158-546, residues 327–330 mutated to alanines (CDT1^4A)); experiment: as above; details: both partners purified
T3 construct: CDT1, human, UniProt Q9H211, residues 158-546 with residues 327-330 all alanine; R330 is; source: E. coli, purified as for the MHD and CHD
T3 sequence (looked up): T1 chain with Q170A, L171A, T172A, R173A

[4] = target: T4, CDT1^R330A (on a CDT1^ΔN background) (human, UniProt Q9H211 158-546, R330A); experiment: as above; details: both partners purified
T4 construct: CDT1, human, UniProt Q9H211, residues 158-546 with R330A; source: E. coli, purified as for the MHD and CHD
T4 sequence (looked up): T1 chain with R173A

[5] = target: T5, CDT1^ΔN (N-terminally truncated CDT1^158-546) (human, UniProt Q9H211 158-546); experiment: as above; details: both partners purified
T5 construct: CDT1, human, UniProt Q9H211, residues 158-546 (lacks the unstructured N-terminus); Plasmid is in Supplementary Data 1; The His tag serves for capture on the NTA chip in the SPR with peptides; also called standard CDT1 construct; source: E. coli BL21 (DE3), purified (HisTrap Excel, POROS HS, Superdex 200); not shown: His6, N-terminal, kept
T5 sequence (looked up): T1 chain

[6] = target: the molecule itself; experiment: as above
[7] = target: T6, full-length CDT1 (CDT1^FL), untagged, co-expressed with geminin (CG complex) (human, UniProt Q9H211 1-546); experiment: SEC-MALS; co-expressed and co-purified CDT1^FL-geminin (CG) complex at >25× higher concentration than in the pre-RC assay; details: both partners purified
T6 construct: CDT1, human, UniProt Q9H211, residues 1-546; A separate GST-cleaved CDT1^FL was used only in pre-RC assays; also called CDT1 of the CG complex; source: E. coli BL21 (DE3), co-expressed with His-geminin, co-purified as described for geminin
T6 sequence (looked up): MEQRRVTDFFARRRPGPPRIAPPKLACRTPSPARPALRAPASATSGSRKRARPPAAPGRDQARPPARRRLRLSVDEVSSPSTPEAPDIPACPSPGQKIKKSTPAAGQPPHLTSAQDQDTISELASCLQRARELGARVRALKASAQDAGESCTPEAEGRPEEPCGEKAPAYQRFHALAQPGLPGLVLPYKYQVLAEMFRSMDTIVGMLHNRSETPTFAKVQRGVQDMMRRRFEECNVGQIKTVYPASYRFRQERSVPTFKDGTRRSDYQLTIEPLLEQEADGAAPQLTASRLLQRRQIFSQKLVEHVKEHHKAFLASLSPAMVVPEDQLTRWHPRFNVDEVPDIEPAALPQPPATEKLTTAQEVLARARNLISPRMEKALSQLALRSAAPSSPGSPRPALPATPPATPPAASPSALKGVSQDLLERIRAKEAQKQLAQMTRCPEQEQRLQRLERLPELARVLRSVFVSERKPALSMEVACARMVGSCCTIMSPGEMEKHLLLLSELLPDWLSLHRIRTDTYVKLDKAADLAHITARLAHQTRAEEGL

[8] = target: T5, CDT1^ΔN (N-terminally truncated …); experiment: SPR; single-cycle; CDT1^ΔN covalently immobilised on a CM5 chip (EDC/NHS); Gem^FL dimer injected, 7 injections, three-fold steps up to 750 nM; 25 °C; 10 mM HEPES, 500 mM NaCl, 50 µM EDTA, 1 mM TCEP-HCl, 0.05% Tween-20, pH 8.0; 1:1 kinetic model of analyte dimer:CDT1; details: both partners purified

koff [1]: 0.0019 s⁻¹
stoichiometry N [2]: 2 geminin monomers per CDT1^MHD
stoichiometry N [3]: 2 geminin monomers per CDT1
stoichiometry N [4]: 2 geminin monomers per CDT1
stoichiometry N [5]: 2 geminin monomers per CDT1
stoichiometry N [7]: 2 geminin monomers per CDT1
Kd [8]: 12 nM
B1: full-length geminin (Gem^FL) (natural protein, human, UniProt O75496 1-209, looked up)
chain: MNPSMKQKQEEIKENIKNSSVPRRTLKMIQPSASGSLVGRENELSAGLSKRKHRNDHLTSTTSSPGVIVPESSENKNLGGVTQESFDLMIKENPSSQYWKEVAEKRRKALYEALKENEKLHKEIEQKDNEIARLKKENKELAEVAEHVQYMAELIERLNGEPLDNFESLDNQEFDSEEETVEDSLVEDSEIGTCAEGTVSSSTDAKPCI
notes: geminin, human, UniProt O75496, full length; Dimer in solution; In the co-purification of the CG complex the His tag is still on geminin at the HisTrap step and is cleaved afterwards; Plasmid is in Supplementary Data 1; also called WT geminin; source: E. coli BL21 (DE3), purified (HisTrap Excel, POROS HQ, Superdex 200); also co-expressed with untagged CDT1 in E. coli BL21 (DE3) and purified in …
stoichiometry N [6]: 1.91 ± 0.09
